Experimental data from the nanobody polyreactivity screen of Harvey et al. (2022).

Test: yeast display, Sf9 membrane polyspecificity reagent, FACS + sequencing; frameworks hold sequencing errors
Procedure, shortened: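 Genes from sorted yeast were amplified by colony PCR, read by MiSeq 2 × 250 sequencing and filtered on CDR length. These cells carried a synthetic nanobody library in Saccharomyces cerevisiae BJ5465 and were sorted by FACS into low and high (top ~1%) gates on anti-HA and streptavidin fluorescence. Polyreactivity is labelled according to the gate of origin.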

Sequence | polyreactivity (PSR sort gate)
QVQLVESGGGLVQAGGSLRLSCAASGGTFDVYTMGWYRQAPGKERELVAAIDNGGSTNYADSVKGRFTISRDNAKHTVYLQMNSLKPEDTAVYYCAADEVYLFWGIAEFIYDYWGQGTQVTVSS | low polyreactivity
QVQLVESGGGLVQAGGSLRLSCAASGFTFPYNAMGWYRQAPGKERELVAAISWSGGSTYYADSVKGRFTISRDNAKNTVYLQMNSLKPEDTAVYYCAASYWRIPMEYWGQVTQVTVSS | high polyreactivity
QVQLVESGGGLVQAGGSLRLSCAASGSTFYWYAMGWYRQAPGKERELVAAITSTGGSTYADSVKGRFTISRDNAKNTVYFQMNSLKPEDTAVYYWNVDTSSPSRRDYDYWGQGTQVTVSS | low polyreactivity
QVQLVESGGGLVQAGGSLRISCAASGSIFGVYAMGWYRQAPGKERELVAAIRSGGRTYYADSVKGRFTISRDNAKNTVYLQMNSLKPEDTAVYYCNAAFSSRVGRVQFYDYDYWGQGTQVTVSW | high polyreactivity
QVQLVESGGGLVQAGGSLRLSCAASGSTFSLYAMGWYRQAPGKERELVARISYTDGSTYYADSVKGRFTISRDNAKNTVYLPMNSLKPEDTAVYYCAADAWYSYTLEDSWGQGTQVTVSS | low polyreactivity
QVQLVESGGGLVQAGGSLRLSCAASGFLFVVYTMGWYRQAPGKERELVAAITSGGSTYYADSVKGRFTISRDNAKNTVYLQMNSLKPEDTAVYYCNALASRYPAYYYWGQGTQVTVSS | low polyreactivity
QVQLVESGGGLVQAGGSLRLSCAASGSTFRYNTMGWYRQAPGKERELVAGITSGGGRTYADSVKGRFTISRDNAKNTVYLQMNSLKPEDTAVYYCAAGKYYFLSRYDSWGQGTQVTVSS | low polyreactivity
QVQLVESGGGLVQAGGSLRLSCAASGSTSVVNAMGWSRQAPGKERELVAVITISAVSTYYADSVKGRFTISRDNAKNTVYLQMNSLKPEDTAVYYCAARSYVIYDNFEYDYWGQGTQVTVSS | high polyreactivity
QVQLVESGGGLVQAGGSLRLSCAASGLIFSKNVMGWYRQAPGKERELVAAISQRGGSTYYADSVKGRFTISRDNAKNTVYLQMNSLKPEDTAVYYCAADNTVSHEDYWGQGTQVTVSS | high polyreactivity
QVQLVESGGGLVQAGGSLRLSCAASGRIFKPYALGWYRPAPGKERELVAALSWTGGRTRYADSVKGRFTISRDNAMNTVYLQMNSLKPEDTAVYYCAAYAIVRSYFIYDYWGQGTQVTVSS | high polyreactivity
QVQLVESGGGLVQAGGRLRLSCAASGFIFTPYTMGWYRQSPGTERELVAAITDGSSTYYADSVNGRFTISRDNAKNTVNLQMNSLKPEDTAVYYCNADGKQPYISWLYDYWGQGTQVTVSS | low polyreactivity
QVQLVESGGGLVKEGGSLRLSCAASGSIFDWYVMGWYRQAPRKERELVATITRDGSTNYADSVKGRFTISRDNAKNTVYLQMNSLKPEDTAVYYCAAVIRSNRLYDGGYWGQGTQVTVSS | low polyreactivity
QVQLVESRGGLDQAGGSLRLSCAASGSTFYMYAMGWYRQAPGKERELVASITSGDGSTYYADSVKGRFTISRDNAKNTVYLQMNSLKPEDTAVYYCNAVLEGWFYQYDYWGQGTQVTVSS | low polyreactivity
QVQLVDSAGGLVQAGGSLRLSCDAYGSNFGVNAMGWYRQAPGKERELVAIITSTTYADSVKGRFTISRDNAKNTVYLQMNSLKREDTAVYYCAIDQERVTKGRFYLLEYDWGHGTQVTVSS | low polyreactivity
QVQLVESCGGLVQAGGSLRLSCAASGRTFGYYAMGWYRQAPGNERELVAAISRGGRTNYADSVKGRFTISRDNAKNTVYLQMNSLKPEDTAVYYCAKSGTIPRYTASYSLLDYWGPGTQVTVSS | low polyreactivity
QVQLVESGGGLVQAGGSLRLSCAASGGIFGTNDMGWYRQAPGKERELVAAITSDSGSTYYADSVKGRFTISRDNAKNTVYLQMNSLKPEDTAVYYCAAEDGPWFYRYGYWGQGTQVTVSS | low polyreactivity
QVQLVESGGGLVQAGGSLRFSCAASGGIFRLYGMGWYREAPGKERELVAAIRQSGGRTYYADSVKGRFTISRDNAKNTVYLQMNSLKPEDTAVYYCAADLLYRSSGTVRSDYSRYDYWGQGTQVTVSS | low polyreactivity
